{"source": "paper doi:10.1101/2025.07.14.664640", "about": "(bioRxiv, 2025)", "binders": {"B1": {"name": "GST-SH3 (SH3 domain of cortactin fused to GST) (domain or fragment)", "chain": "not shown"}}, "target": "T1, MBP-HS1BP3 full length (UniProt Q53T59 1-392)", "T1 sequence (looked up)": "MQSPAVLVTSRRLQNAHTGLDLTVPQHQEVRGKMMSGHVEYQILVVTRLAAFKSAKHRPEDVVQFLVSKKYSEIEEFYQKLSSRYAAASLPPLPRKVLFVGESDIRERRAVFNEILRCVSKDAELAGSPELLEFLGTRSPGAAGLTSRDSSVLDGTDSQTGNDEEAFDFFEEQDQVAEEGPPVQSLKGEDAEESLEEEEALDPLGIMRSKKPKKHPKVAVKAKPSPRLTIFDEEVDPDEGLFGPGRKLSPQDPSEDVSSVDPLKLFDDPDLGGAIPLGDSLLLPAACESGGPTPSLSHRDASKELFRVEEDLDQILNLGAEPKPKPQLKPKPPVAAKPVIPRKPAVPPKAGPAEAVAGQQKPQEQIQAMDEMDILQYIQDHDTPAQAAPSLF", "test": "pull-down"}
{"binder": "B1", "values": [{"measurement": "binding result", "result": "binds"}]}
